Molecular target: T1, cynomolgus monkey IL-13 (NHP IL-13) (cynomolgus monkey, UniProt Q5I6E4 21-132 (Macaca thibetana entry))
T1 construct: Also used here for the IL-13 found in cynomolgus monkey serum; also called non-human primate IL-13; cynomolgus IL-13
T1 chain: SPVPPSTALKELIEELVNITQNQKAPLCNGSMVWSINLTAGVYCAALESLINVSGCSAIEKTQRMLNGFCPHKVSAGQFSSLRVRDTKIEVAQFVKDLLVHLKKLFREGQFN
Assay: direct NHP IL-13 binding ELISA
From the text: The humanized MJ 2-7 V3 and V4 were produced in COS cells by combining hMJ 2-7 VH V1 with hMJ 2-7 VL V3 and V4. The antigen binding properties of the antibodies were examined by direct NHP IL-13 binding ELISA.

B1: humanized MJ 2-7 V3 (hMJ 2-7 VH V1 with hMJ 2-7 VL V3) (antibody, V domains shown)
VH: QVQLVQSGAEVKKPGASVKVSCKASGFNIKDTYIHWVRQAPGQRLEWMGRIDPANDNIKYDPKFQGRVTITRDTSASTAYMELSSLRSEDTAVYYCARSEENWYDFFDYWGQGTLVTVSS
VL: DVVMTQSPLSLPVTLGQPASISCRSSQSLVYSDGNTYLNWFQQRPGQSPRRLIYKVSNRFSGVPDRFSGSGSGTDFTLKISRVEAEDVGVYYCFQGSHIPYTFGGGTKVEIK
notes: Produced in COS cells; VL V3: DPK18 with human germline CDR1 and CDR2 and the CDR3 of mouse MJ2-7; also called hMJ2-7 V3; Version 3
**Q.** Does B1 bind?
**A.** no binding
